Non-standard residues stand in square brackets, D forms with d. No end group written: not given here.

For the assay, the target named is recombinant αIIbβ3 headpiece. Kind of assay: FP.
One may read the Kd as a measure of binding affinity in units of concentration. For AGD[dV] [AGD(v) (D-valine in place of L-valine)], the Kd turned out to be 217 µM.

Take AGDV-OMe [AGDV-OCH3 (O-methylated AGDV)]: the dissociation constant Kd was 67.6 µM.

Take AGDV-NH2 [AGDV-NH2 (amidated AGDV)]: the Kd worked out at 50.9 µM.

Source of the values: paper PMC4813479 (2015).
